Measurements reported in US20160158369A1, “PHARMACEUTICAL COMPOSITION FOR RESPIRATORY ADMINISTRATION” (SEIKAGAKU CORPORATION, priority 2013, published 2016).
Where “and” joins values, the source holds several entries; their conditions need not be identical. Equal entries are not always repeated.

Experiment: Drug dissociation test: polysaccharide derivative in buffer solution, 36°C, 1 week, HPLC
Assay type: physicochemical
Experimental: In the examples relating to drug dissociation test, the drug dissociation ratio was evaluated as described below.
Sodium dihydrogen phosphate dihydrate (780 mg (5.0 mmol)) was dissolved in 500 mL of distilled water to give a liquid A. Separately, disodium hydrogen phosphate dodecahydrate (1.79 g (5.0 mmol)) was dissolved in 500 mL of distilled water to give a liquid B. By mixing the liquid A and liquid B at ratio of 2:3, a phosphate buffer solution of pH 7.5 was prepared.
0.62 g (10 mmol) of boric acid and 0.75 g (10 mmol) of potassium chloride were weighed and dissolved in 500 mL of distilled water to give a liquid C. Separately, by diluting 0.1 N sodium hydroxide solution with distilled water (×10 dilution), a liquid D was prepared.
50 mL of the liquid C and 7 mL of the liquid D were added to a 100 mL mess flask, and according to dilution to 100 mL with distilled water, a borate buffer solution of pH 8.0 was prepared. Furthermore, 50 mL of the liquid C and 40 mL of the liquid D were added to a 100 mL mess flask, and according to mess-up to 100 mL with distilled water, a borate buffer solution of pH 9.0 was prepared.
Each polysaccharide derivative obtained from above was dissolved in a buffer solution at each pH so as to have a concentration of 5 mg/10 mL, and heated for 1 week in an incubator at 36° C. Then, the drug dissociation ratio during the incubation was evaluated every 24 hours by liquid chromatography (HPLC).
The evaluation was performed by measuring the ratio between the drug amount remained in a polysaccharide derivative and the dissociated drug amount according to use of a size exclusion chromatography column (manufactured by TOSOH, TSKgel α-6000, 7.8 mmI.D.×30 cm).
Detailed conditions for the liquid chromatography are as follows.
Analysis time: 40 minutes
Solution for elution: acetonitrile (for HPLC):physiological saline=1:2
Detector: UV detector (240 nm)

Substance | Dissociation ratio (%/day) (pH 7.4, 36°C) | drug dissociation ratio (pH 7.4, 36°C, day 0) [%] | drug dissociation ratio (pH 7.4, 36°C, day 1) [%] | drug dissociation ratio (pH 7.4, 36°C, day 2) [%] | drug dissociation ratio (pH 7.4, 36°C, day 3) [%] | drug dissociation ratio (pH 7.4, 36°C, day 4) [%] | drug dissociation ratio (pH 7.4, 36°C, day 5) [%] | drug dissociation ratio (pH 7.4, 36°C, day 6) [%] | drug dissociation ratio (pH 7.4, 36°C, day 7) [%] | Dissociation ratio (%/day) (pH 8.0, 36°C) | drug dissociation ratio (pH 8.0, 36°C, day 0) [%] | drug dissociation ratio (pH 8.0, 36°C, day 1) [%] | drug dissociation ratio (pH 8.0, 36°C, day 2) [%] | drug dissociation ratio (pH 8.0, 36°C, day 3) [%] | drug dissociation ratio (pH 8.0, 36°C, day 4) [%] | drug dissociation ratio (pH 8.0, 36°C, day 5) [%] | drug dissociation ratio (pH 8.0, 36°C, day 6) [%] | drug dissociation ratio (pH 8.0, 36°C, day 7) [%] | also measured
Chondroitin Sulfate Introduced with 11-β-Alanyl-Propionic Acid Fluticasone [Compound vii] | 0.1 %/day | 0.0 | 0.0 | 0.0 | 0.2 | 0.4 | 0.4 | 0.4 | 0.4 | 0.2 %/day | 0.0 | 0.3 | 0.6 | 0.7 | 0.7 | 1.0 | 1.0 | 1.1 | –
Chondroitin Sulfate Introduced with β-Alanyl-Proxyphylline [Compound xxiia] | 0.2 %/day | 0.0 | 0.0 | 0.0 | 0.0 | 0.0 | 0.0 | 0.8 | 1.3 | 0.4 %/day | 0.0 | 0.0 | 0.0 | 1.2 | 1.6 | 2.0 | 2.3 | 2.6 | –
Hyaluronic Acid Introduced with 21-β-Alanyl-Budesonide (390 kDa) [Compound vib] | 4.9 %/day | 3.3 | 9.3 | 16.3 | 18.4 | 22.3 | 25.2 | 30.7 | 34.6 | 7.9 %/day | 0.4 | 12.8 | 16.1 | 23.2 | 36.7 | 44.1 | 50.2 | 55.3 | –
Chondroitin Sulfate Introduced with 11-Glycyl-Propionic Acid Fluticasone [Compound xvii] | – | – | – | – | – | – | – | – | – | – | – | – | – | – | – | – | – | – | Dissociation ratio (%/day) (pH 7.4, phosphate buffer solution/acetonitrile (1:1), 36°C): 0.4 %/day; drug dissociation ratio (pH 7.4, phosphate buffer solution/acetonitrile (1:1), 36°C, day 0): 0.0%; drug dissociation ratio (pH 7.4, phosphate buffer solution/acetonitrile (1:1), 36°C, day 1): 0.3%; drug dissociation ratio (pH 7.4, phosphate buffer solution/acetonitrile (1:1), 36°C, day 2): 0.7%; drug dissociation ratio (pH 7.4, phosphate buffer solution/acetonitrile (1:1), 36°C, day 3): 1.3%; drug dissociation ratio (pH 7.4, phosphate buffer solution/acetonitrile (1:1), 36°C, day 4): 1.9%; drug dissociation ratio (pH 7.4, phosphate buffer solution/acetonitrile (1:1), 36°C, day 5): 2.3%; drug dissociation ratio (pH 7.4, phosphate buffer solution/acetonitrile (1:1), 36°C, day 6): 2.5%; drug dissociation ratio (pH 7.4, phosphate buffer solution/acetonitrile (1:1), 36°C, day 7): 2.9%; Dissociation ratio (%/day) (pH 8.0, borate buffer solution/acetonitrile (1:1), 36°C): 3.3 %/day; drug dissociation ratio (pH 8.0, borate buffer solution/acetonitrile (1:1), 36°C, day 0): 0.0%; drug dissociation ratio (pH 8.0, borate buffer solution/acetonitrile (1:1), 36°C, day 1): 4.6%; drug dissociation ratio (pH 8.0, borate buffer solution/acetonitrile (1:1), 36°C, day 2): 10.1%; drug dissociation ratio (pH 8.0, borate buffer solution/acetonitrile (1:1), 36°C, day 3): 14.1%; drug dissociation ratio (pH 8.0, borate buffer solution/acetonitrile (1:1), 36°C, day 4): 17.8%; drug dissociation ratio (pH 8.0, borate buffer solution/acetonitrile (1:1), 36°C, day 5): 18.9%; drug dissociation ratio (pH 8.0, borate buffer solution/acetonitrile (1:1), 36°C, day 6): 20.0%; drug dissociation ratio (pH 8.0, borate buffer solution/acetonitrile (1:1), 36°C, day 7): 22.8%
Hyaluronic Acid Introduced with 21-β-Alanyl-Budesonide (880 kDa) [Compound via] | 4.9 %/day | 2.0 | 9.6 | 16.8 | 18.3 | 21.7 | 23.9 | 30.9 | 34.3 | 8.2 %/day | 0.9 | 15.0 | 20.4 | 26.4 | 39.9 | 46.2 | 52.6 | 57.1 | –
Chondroitin Sulfate Introduced with Seratrodast [Compound xxiii] | 0.1 %/day | 0.0 | 0.0 | 0.2 | 0.3 | 0.3 | 0.4 | 0.5 | 0.6 | 0.2 %/day | 0.0 | 0.2 | 0.4 | 0.6 | 0.7 | 0.9 | 1.1 | 1.3 | –
Chondroitin Sulfate Introduced with 21-β-Alanyl-Budesonide (20 kDa) [Compound vb] | 0.9 %/day | 0.3 | 1.2 | 2.4 | 3.0 | 3.6 | 4.0 | 5.1 | 6.4 | 1.5 %/day | 0.2 | 1.2 | 1.7 | 2.9 | 5.5 | 7.6 | 8.9 | 10.8 | –
Carboxymethyl Cellulose (500) Introduced with 21-β-Alanyl-Budesonide [Compound xxa] | 2.8 %/day and 2.6 %/day | – | – | – | – | – | – | – | – | 5.7 %/day and 5.5 %/day | 2.7 | 9.9 | 16.4 | 22.1 | 27.1 | 31.7 | 35.9 | 39.6 | Dissociation ratio (%/day) (pH 7.5, 36°C): 2.8 %/day; drug dissociation ratio (pH 7.5, 36°C, day 0): 2.0%; drug dissociation ratio (pH 7.5, 36°C, day 1): 4.8%; drug dissociation ratio (pH 7.5, 36°C, day 2): 7.4%; drug dissociation ratio (pH 7.5, 36°C, day 3): 10.0%; drug dissociation ratio (pH 7.5, 36°C, day 4): 12.6%; drug dissociation ratio (pH 7.5, 36°C, day 5): 15.0%; drug dissociation ratio (pH 7.5, 36°C, day 6): 17.4%; drug dissociation ratio (pH 7.5, 36°C, day 7): 19.8%
Chondroitin Sulfate Introduced with 21-β-Alanyl-Budesonide (10 kDa) [Compound vc] | 1.2 %/day | 0.4 | 1.6 | 2.8 | 3.7 | 4.8 | 5.3 | 6.8 | 8.5 | 2.0 %/day | 0.1 | 1.9 | 2.4 | 3.9 | 7.6 | 9.7 | 11.2 | 14.0 | –
